For the data set, the system named is Saccharomyces cerevisiae. The data set can be described thus: transcriptional activation domain activity (GFP:mCherry ratio, weighted mean of sorted bins, harmonized to initial dataset scale) (arbitrary fluorescence ratio units); higher = stronger transcriptional activation. To be noted: beta-estradiol 1 µM; induction time 4 h. The procedure, abridged:
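In diploid yeast carrying a GFP reporter, barcoded protein tiles fused to an estradiol-inducible synthetic transcription factor were integrated at the URA3 locus. Cultures diluted 1:5 into SC with 1 uM beta-estradiol were kept at 30 °C for 4 hours, then sorted by GFP:mCherry ratio into 8 bins before barcode sequencing. Tiles with under 50 reads were excluded. The activation activity reported here is the read-weighted mean of bin median fluorescence, averaged across barcodes and linearly rescaled to the initial dataset.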
In the case of “MDDALSVKSNDDGTYDVAVHIADVSYFVKPNTALDRDARKRATSVYLIQRAVP”, the “transcriptional activation domain activity” value was 15900.

Consider “TLLIASLLVVLCLLRRFLLSILCNRDFYMIKFYTFFLYQILLCSLLKCLRLLW”, for which the “transcriptional activation domain activity” value was determined as 80500.

With “GLLKIVVILPVTDVPLPPYRVTPMFLGGMRDLVTHLLRRTSTILTCDRLWYLW”, the “transcriptional activation domain activity” value was found to be 28400.

Take “GKGEKDSKDNEKGEGEKKGENRRGRRRGGRGRGGGGDKDKENNKDGGGGRGEK”: the “transcriptional activation domain activity” value came to 30500.

In the case of “SHALQNRRASHASSAGSGSRRGSREETGEHHHKKHHHHKKHHHRRHSHGGGGG”, the “transcriptional activation domain activity” value was found to be 54500.

“MRLEVFCPLANATSHAYLIFCIMHCLYFIRHFFCCRSLSTFYSSRLLLLFHFI”: the “transcriptional activation domain activity” value amounted to 80900.

With “KYAYGCDELIFNPLVHWWKMGPINKQLRTFVWSDAPVHYKVTMLSYMFSYYGI”, the “transcriptional activation domain activity” value turned out to be 50100.

Regarding “MTVTPVNGYGWSRANKIGWTVFYISLWGYSNCSYFFPLPLYFSYVFFFFPFYP”, the “transcriptional activation domain activity” value was 42200.

Turning to “VRTVIESNRRLNLAVVSKSQRWRCSKIWIPGLLMHVFNFWCIVYMITFNAVWD”, the “transcriptional activation domain activity” value was 49800.

For “LLTFNLEVKRIWTLRWKLPKYLFVLNRYILPPFLFFEAFSNITYNLGKHVSRI”, the “transcriptional activation domain activity” value worked out at 50800.

Turning to “MISIAGFYLFFLGYWRFWMLFINLIVGLLATIGHHVSGLACLIFFCGSSVRIS”, the “transcriptional activation domain activity” value was 35300.

On to “MRGVCSFCSFCSFSFLFLFLFLFLFFSFFSFFSFCFFLFFPSFLSVSLSFLLS”, for which the “transcriptional activation domain activity” value was determined as 71100.

Take “EGSSSGEEESSEEEEAAPRREDAAAARQKAADEMIEEQIKRDLAARAAGKKHW”: the “transcriptional activation domain activity” value stood at 30100.

Take “RKARQAQGAQGGGGGGAGGPGARGGARGGRVGGERGGRGGGRGGERGRGRGRG”: the “transcriptional activation domain activity” value stood at 51400.

As for “SPFASAGQTGQSPFGGLNKASSPAFAGTGSGSTFGQASTLGGAFGKPAEPAAT”, the “transcriptional activation domain activity” value is 32400.

For the sequence “GACLQDIAMVGFIDTNSIGCVASSVVLYLSLVFIIGVVAIRFFMAVMFQWFFS”, the “transcriptional activation domain activity” value is 35600.

For “GEGEGEVEAEVPTAAANEPVLEVQPKEPEPEAPAQPQQQPAAVKTTRPAPVSH”, the “transcriptional activation domain activity” value is 28800.

Regarding “PSTSPTPSSACAPSAASSTRSPPSTPARGGATSGTCCASACAASTPCVTRYTG”, the “transcriptional activation domain activity” value came to 11500.

In the case of “MHRLHYLMCIIIGVRLTAVVGLGRHRVVYVYCFCFSDTSRKMVRQDGIKLFTA”, the “transcriptional activation domain activity” value was 43200.

On to “FTRHLSKEEIDVVVDCVWRASKLRNCTRVTVMECCVRTAPWFNSDGVICAYIM”, for which the “transcriptional activation domain activity” value turned out to be 49700.

“MHFAVKVKMQLFFFIFSLTLFFFLWYFFFFFPVVYGVFSSGVLGVFFSLFSFF”: the “transcriptional activation domain activity” value turned out to be 66200.

Turning to “STPSAFGAQPTQTTGAFGQPAQTSAFGAQPATGGFGNTGSAFGQARPSAFGST”, the “transcriptional activation domain activity” value worked out at 16900.

With “AQQPQKKPGAPKPKGAVRAKSGCYTCRIRRKKCDENPNAEGACQTCVRLRLQC”, the “transcriptional activation domain activity” value came out at 66200.

On to “MEHFSLFLFRFFFLFFVFLFLRRRGGGFGTGFGFWFLVFGFWFLVFGFWFWLW”, for which the “transcriptional activation domain activity” value was found to be 64000.

In the case of “PVLEQKRCIRAMEEMIILCKEYIRIARPQISACLISALSFDELRATAFSCWVA”, the “transcriptional activation domain activity” value was determined as 48700.

“APPPREGGARGGRGGRGRGEFRGGEGRGRGEGRESRGGEGRGRGGEGRGEFRG”: the “transcriptional activation domain activity” value is 25900.

For the sequence “MLRCVFFLYCFLLVTFFSSRRVLVCAGAYLSSSYPLMPDCQYWVYFAFLRCFS”, the “transcriptional activation domain activity” value worked out at 52400.

For “VLLITLILSSRINITPVVHVNPSFSTVHLIIIPHFLCNIITLLIYFIVCWGST”, the “transcriptional activation domain activity” value is 56800.

For the sequence “MTWRGLSLLLSVLLITWCDPAFFPPVYIQFLFIFIFAWLHLIFLFLIQYLGCI”, the “transcriptional activation domain activity” value was determined as 37900.

As for “INGLFMLLLVYYLTLYHLARCLGYSVLSYLAHFIRFDGFCPLLHTCAGLLFSS”, the “transcriptional activation domain activity” value worked out at 42300.

For “GSSDGGSHNAPGAPRPMALRALITTKEAGVIIGKNGKNVAEMREQSGAKITVS”, the “transcriptional activation domain activity” value stood at 48900.

Consider “VCLNLLGGVVVCYCPGLLVIAAIEAPIRFKHIFTCSIHIHSLYLRLLFCALHA”, for which the “transcriptional activation domain activity” value was found to be 69200.

For “MAFGAVLGLFICDADKVVRADGSRIILMKHPSWKTEIVGLWQTLIAEPWIIML”, the “transcriptional activation domain activity” value was determined as 51400.

Turning to “ASNAPGTGASRSAAAAATAAISRAKGAAQQQQAQKKPDASSSRPAGKQPAVKE”, the “transcriptional activation domain activity” value is 26900.

Take “VRTARQQLMEAAMKTFQLAVGPSEYLPNLALGYQYMACLRWLTHFNIFFHIPL”: the “transcriptional activation domain activity” value is 71400.

Regarding “LYNTLFLQLSAIAREFNFPSAAGLCCYMNFSDNGSIFAPRITDDAWIILWRRY”, the “transcriptional activation domain activity” value was 71800.

“MHFAVKVKMQFFFFPSLSFFSSVVFISPPPPFVFLWHMGFLACLLFRSLVVFF”: the “transcriptional activation domain activity” value amounted to 57000.

Turning to “LCVDVWDGFFLSPLNLVAISFLIFLPFHCWVINAPLSILCLTSIMGFPSFLFF”, the “transcriptional activation domain activity” value came to 70200.

“AMKDIEIVKDEETGAPIVRLRGEAAAAAKKAGVQDITLSISHSDNQAIAVAVA”: the “transcriptional activation domain activity” value worked out at 58900.

For “RPSLGCILFILIRYVSIIVMVVSNYGVLSTSFTEKVCERYFMIAPVFKVIQTM”, the “transcriptional activation domain activity” value came out at 50600.

Consider “DNESDAEPQQEKSKSQSRRRQSRGRGRRGADSGAESDARSDVSQSGGRRNRQR”, for which the “transcriptional activation domain activity” value turned out to be 44200.

As to “MRLGQLYSLFLFPSFLLSFFIMPLVSVTKYTPGVDNIYFFFFLFFFFFLFFFL”, the “transcriptional activation domain activity” value was 36900.

In the case of “MVKLLLTRLPYFCVLVYCVFRYPIATFCLDIFLFFKQLCQNAHAIQWPQISWL”, the “transcriptional activation domain activity” value was 77200.

Turning to “MFFCSFFRWGFIFFFSFLFFSFILLCWCFLVFLNFATDPACNLPFSFLVFIPR”, the “transcriptional activation domain activity” value worked out at 57600.

Take “MLLICMSVWLCALSLCILRCRENFFVLMGDVFFFLASMWYGTVSQFVRRPLFH”: the “transcriptional activation domain activity” value came out at 48100.

Turning to “GAAASPPPNPDGGKPRKRKGPKEKGGEGNAAARRDAGAGAGAGAARSGSAAAA”, the “transcriptional activation domain activity” value came out at 27100.

For “MAPTKAVAPAPAAAADGTVKRGRGRPPKDPSERKPKPEPSGRPRGRPKGSGGV”, the “transcriptional activation domain activity” value turned out to be 33400.

As for “STLQLASSFDITVNGPPVLCQGISITACASSSLVVALSWISCMIMLMYFFSLL”, the “transcriptional activation domain activity” value worked out at 52800.

“MVQCAVAECTEEGKSQCGRCKQRFYCSADCQQKDWKVHKKNCKSPAATSAQLS”: the “transcriptional activation domain activity” value was 23100.

In the case of “VGKSCGRCRFPICYNPRGTCICCALRSNIVIPWMHFAYRNPHDRKPFVLHFTF”, the “transcriptional activation domain activity” value amounted to 41700.

Take “CIGAMVLIVLWAGGVCILVLVMCIPLEGVWDRRVNAKCIPHMTVMWYFNGVFN”: the “transcriptional activation domain activity” value was found to be 62900.

With “MTVEPSISLLFIDYLLFLIPFLSLFILFSLVLLLSYISPCNFFFFAISSQLPW”, the “transcriptional activation domain activity” value turned out to be 39200.

As to “MNLSRYAVVLATQWGILIMLAMNQLCIPSFLTMFAYIPTKVLQFFHYFIVSLF”, the “transcriptional activation domain activity” value was 47700.

For the sequence “YVASQLIEIFLPEALFSVVYLSNAGKCLSREEFLVQFTFLVRLFKHEFVYPWN”, the “transcriptional activation domain activity” value is 30700.

Take “GRKKRAVKKKAEGAGAGAGGGGGGAEAEGKVETKGKKAAKPKSRTKAGAKAKG”: the “transcriptional activation domain activity” value was under 6570.

In the case of “WLRPPRWACGRRALLLLSMGLGTVMLLILTGLLTMNQSNGAKLPVVMVFVILF”, the “transcriptional activation domain activity” value stood at 32600.

For the sequence “FFFFHFFFFWSSLRHIFQVLILGALGFLFFHFSFFIFHFSFFIFHFHFLFFFS”, the “transcriptional activation domain activity” value turned out to be 50400.

For “STLVFLKLYSSLMLGTCLTSILCFSLPDFFPGKRGFAIGLCLYHSICSTVLFQ”, the “transcriptional activation domain activity” value was found to be 63900.

Turning to “NAVNKSRGMVKGSGRKLHQQKGTGRARMRDAQNPIRRGGGRAFAKTTARNWLV”, the “transcriptional activation domain activity” value stood at 29500.

In the case of “VFLNGILFLGSILFYQVVLLRLNWYLLHILAYTIAFAYNAFWLYPVYCLSFLL”, the “transcriptional activation domain activity” value stood at 33000.

On to “TTAATEPTKTEAAPPAPATEPAPAAEPAAPAAEPAKEEAKPATEVKPEAPAAA”, for which the “transcriptional activation domain activity” value was 24800.

For the sequence “MFFPLVLSKMLICVSFLPVTLLISYLSFFFLFFTGLGLGATAFFFFTFLLYFS”, the “transcriptional activation domain activity” value came to 42100.

“EDTVHSVRVKAHRMKKSESGETGWAELGVGVLRLKTHKETASRRMLLRNSGNG”: the “transcriptional activation domain activity” value is 58000.

“LDKVADPDYHPAVENSDVEEVMAAWRKTVREEALGVVEAGGGNVPGRGRVEVK”: the “transcriptional activation domain activity” value was found to be 48000.

As to “MIFFLLFFFSFHQVYFSLFSFRRIFLLSFLLLLLPFLLFACVLFSLLTFCPFL”, the “transcriptional activation domain activity” value amounted to 41900.

In the case of “SICRLGVGLSITGYRLGSMVLLRHDLRLIVTVFSMHLKYFVSFARPSMKILLR”, the “transcriptional activation domain activity” value is 67300.

Turning to “QLECFGSTSLGWKSLKLVLRAHALCLLAAAVKEGLFEYSYVRLLADLCLSLEC”, the “transcriptional activation domain activity” value amounted to 56200.

In the case of “DLDFRGIFMTDWYANYDYMVSDLIMPGFWRVPVLPKWYNWTGFFASWPLIGQF”, the “transcriptional activation domain activity” value was 68800.

Regarding “FWFPNYIFGALSFFSWMSWIAPTNINLANITGSSTGLGLNPFSSFDWNVWTFN”, the “transcriptional activation domain activity” value was determined as 51400.

“MDNIRSKHNHLLTAGWIYAFIDFWCITLRHFLIFIASMLFYGYLCIWCPTILV”: the “transcriptional activation domain activity” value worked out at 59000.

On to “KFSLGGALYLLTRYCVLLQLIFDVTYEMQPPWTLNNVVWVANISDLVSGISIH”, for which the “transcriptional activation domain activity” value amounted to 34400.

On to “VEAPAEEQAEAPKTKRGRKAAEPAPVEPKEAEAPEPAAKPKRGRKAVSEEPME”, for which the “transcriptional activation domain activity” value amounted to 42100.

Take “MALNLFQKEIFLILFLLFYYFAILLFCYFIILLFCYLIFLFFLFHLSLSSLIF”: the “transcriptional activation domain activity” value was determined as 26300.

As to “MLFLMYIFYLCRCLLLFFLTDIMISLLLPSLFSPLITLFLFFTLFKYMYIYAN”, the “transcriptional activation domain activity” value stood at 65400.

(Values after the supplement of paper PMC12636428.)
